From publication PMC12044017, “CDK4/6-mediated phosphorylation of DUB3 promotes YAP1 stability and hepatocellular carcinoma progression” (Cell Death Discovery, 2025)

Biological target: T1, His-DUB3 (UniProt Q6R6M4 1-530)
T1 construct: deubiquitinase DUB3 (USP17L2), cloned into pET30a; the methods name only GST-DUB3 WT and His-YAP1
T1 sequence (looked up): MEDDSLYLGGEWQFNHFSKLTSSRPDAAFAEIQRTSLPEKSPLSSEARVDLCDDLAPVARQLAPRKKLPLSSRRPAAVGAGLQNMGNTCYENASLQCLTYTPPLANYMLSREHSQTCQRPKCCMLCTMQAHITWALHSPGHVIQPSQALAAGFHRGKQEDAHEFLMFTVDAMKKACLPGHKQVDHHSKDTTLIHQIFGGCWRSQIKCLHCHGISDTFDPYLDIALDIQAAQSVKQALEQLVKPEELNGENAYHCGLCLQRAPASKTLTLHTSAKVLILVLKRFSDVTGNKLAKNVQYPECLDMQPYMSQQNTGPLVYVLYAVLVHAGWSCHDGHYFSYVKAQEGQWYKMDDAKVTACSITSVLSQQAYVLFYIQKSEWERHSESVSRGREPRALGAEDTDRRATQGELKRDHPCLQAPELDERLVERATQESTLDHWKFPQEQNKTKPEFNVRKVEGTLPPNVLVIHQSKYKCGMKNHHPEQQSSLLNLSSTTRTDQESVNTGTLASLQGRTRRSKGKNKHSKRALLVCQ
Experiment: pull-down; GST-fusion protein on Pierce Glutathione agarose mixed with purified His-tagged protein at 4 °C for 2 hours; beads washed four times; western blot
Conditions: both partners purified

binding result: binds
B1: GST-CDK4 (enzyme, UniProt P11802 1-303, looked up)
chain: MATSRYEPVAEIGVGAYGTVYKARDPHSGHFVALKSVRVPNGGGGGGGLPISTVREVALLRRLEAFEHPNVVRLMDVCATSRTDREIKVTLVFEHVDQDLRTYLDKAPPPGLPAETIKDLMRQFLRGLDFLHANCIVHRDLKPENILVTSGGTVKLADFGLARIYSYQMALTPVVVTLWYRAPEVLLQSTYATPVDMWSVGCIFAEMFRRKPLFCGNSEADQLGKIFDLIGLPPEDDWPRDVSLPRGAFPPRGPRPVQSVVPEMEESGAQLLLEMLTFNPHKRISAFRALQHSYLHKDEGNPE
notes: cyclin-dependent kinase 4 (CDK4); no cyclin partner is mentioned; also called cyclin-dependent kinase 4; source: bacterial-purified recombinant; GST-fusion proteins purified on Pierce Glutathione agarose
